Measurements published in paper PMC9772228, “Structure of a RecT/Redβ family recombinase in complex with a duplex intermediate of DNA annealing”.
Residue numbers refer to the chain shown, from its start.

Tests used:
Test in all cases: EMSA; EMSA: PBS pH 7.4 (or KH2PO4/10 mM MgCl2 pH 6.0), 3.6 or 5 uM protein, 25 uM nt DNA, 37 C 15 min per strand, 0.8% agarose 1x TBE; cryo-EM: 20 mM KH2PO4 (Results: 10 mM), 10 mM MgCl2 pH 6.0, 37 C; native MS: 100 mM ammonium acetate pH 7, 37 C
Settings in all cases: protein: recombinant, tags: N-terminal 6His vector tag (20 aa) retained, chain copies: 10
LiRecT V98A/Y100A/Q107A = biological target: T1, LiRecT V98A/Y100A/Q107A (Listeria innocua CLIP 11262, UniProt Q92FL9 1-271, V98A;Y100A;Q107A)
T1 sequence: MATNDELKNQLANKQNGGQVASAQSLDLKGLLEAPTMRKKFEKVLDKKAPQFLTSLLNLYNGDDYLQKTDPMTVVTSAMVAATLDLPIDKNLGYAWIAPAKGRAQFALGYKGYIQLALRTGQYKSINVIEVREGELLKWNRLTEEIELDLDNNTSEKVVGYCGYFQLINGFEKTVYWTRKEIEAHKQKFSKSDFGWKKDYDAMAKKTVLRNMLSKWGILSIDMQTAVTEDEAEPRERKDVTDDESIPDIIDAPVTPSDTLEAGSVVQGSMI

LiRecT Y100A = biological target: T2, LiRecT Y100A (Listeria innocua CLIP 11262, UniProt Q92FL9 1-271, Y100A)
T2 sequence: T1 sequence with A98V, A107Q

LiRecT K180A = biological target: T3, LiRecT K180A (Listeria innocua CLIP 11262, UniProt Q92FL9 1-271, K180A)
T3 sequence: T1 sequence with A98V, A100Y, A107Q, K180A

LiRecT Q107H = biological target: T4, LiRecT Q107H (Listeria innocua CLIP 11262, UniProt Q92FL9 1-271, Q107H)
T4 sequence: T1 sequence with A98V, A100Y, A107H

LiRecT K157A = biological target: T5, LiRecT K157A (Listeria innocua CLIP 11262, UniProt Q92FL9 1-271, K157A)
T5 sequence: T1 sequence with A98V, A100Y, A107Q, K157A

[1] = label: 5'-Cy3;5'-Cy5, 49 bp, 1 nt 5' overhang at each end

Measured: binding result

B1: Cy5-50mer (ssDNA)
DNA: CCATCCGCAAAAATCGAGCTATGCAGGGCGATTCTGCTCTAAGCCATCCG
binds: LiRecT V98A/Y100A/Q107A; label: 5'-Cy5, single strand | LiRecT Y100A; label: 5'-Cy5, single strand | LiRecT K180A; label: 5'-Cy5, single strand | LiRecT Q107H; label: 5'-Cy5, single strand | LiRecT K157A; label: 5'-Cy5, single strand

B2: Cy3-50mer (ssDNA)
DNA: GCGGATGGCTTAGAGCAGAATCGCCCTGCATAGCTCGATTTTTGCGGATG
binds: LiRecT V98A/Y100A/Q107A; label: 5'-Cy3, single strand | LiRecT Y100A; label: 5'-Cy3, single strand | LiRecT K180A; label: 5'-Cy3, single strand | LiRecT Q107H; label: 5'-Cy3, single strand | LiRecT K157A; label: 5'-Cy3, single strand

B3: 50-mer duplex intermediate (sequential addition) (dsDNA)
DNA 1: B2 DNA
DNA 2: B1 DNA
binds: LiRecT V98A/Y100A/Q107A; [1] | LiRecT Y100A; [1] | LiRecT K180A; [1] | LiRecT Q107H; [1] | LiRecT K157A; [1]
